Data as given in patent US20100022453A1.

Legend:
[1] = biological target: mouse NgR1, endogenous in acute hippocampal slices (mouse) (UniProt Q99PI8); assay: cell-based or functional assay
[2] = biological target: rat NgR1 (Nogo-66 receptor), full-length, expressed on cells (rat) (UniProt Q99M75); assay: cell-based or functional assay
Chain of rat NgR1 (Nogo-66 receptor), full-length, expressed on cells (rat) (Q99M75 27-447 limits assumed): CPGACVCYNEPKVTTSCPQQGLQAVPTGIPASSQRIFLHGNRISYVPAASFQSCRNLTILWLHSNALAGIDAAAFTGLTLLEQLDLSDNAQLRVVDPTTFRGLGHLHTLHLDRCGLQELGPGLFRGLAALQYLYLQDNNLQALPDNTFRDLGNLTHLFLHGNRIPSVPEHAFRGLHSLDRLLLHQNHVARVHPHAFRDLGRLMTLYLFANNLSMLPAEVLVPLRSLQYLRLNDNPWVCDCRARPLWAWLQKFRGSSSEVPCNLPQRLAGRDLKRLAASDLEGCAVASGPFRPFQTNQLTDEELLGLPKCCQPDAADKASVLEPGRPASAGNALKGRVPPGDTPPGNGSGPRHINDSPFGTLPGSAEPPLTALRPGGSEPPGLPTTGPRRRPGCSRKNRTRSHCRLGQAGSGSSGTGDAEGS

Chain of mouse NgR1, endogenous in acute hippocampal slices (mouse) (Q99PI8 27-447): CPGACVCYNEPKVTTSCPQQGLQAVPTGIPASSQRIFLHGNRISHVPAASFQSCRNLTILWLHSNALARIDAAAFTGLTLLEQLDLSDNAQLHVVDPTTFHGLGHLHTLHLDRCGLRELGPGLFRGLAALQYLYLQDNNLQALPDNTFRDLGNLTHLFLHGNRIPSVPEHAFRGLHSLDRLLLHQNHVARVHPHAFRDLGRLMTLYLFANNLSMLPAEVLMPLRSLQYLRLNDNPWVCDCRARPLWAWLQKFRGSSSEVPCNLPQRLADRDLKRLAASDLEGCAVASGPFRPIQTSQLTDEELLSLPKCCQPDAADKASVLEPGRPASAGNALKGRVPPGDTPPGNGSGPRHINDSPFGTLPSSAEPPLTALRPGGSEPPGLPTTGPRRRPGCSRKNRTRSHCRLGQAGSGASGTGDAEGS

FGF2 (Peprotech), unlabeled (ligand)
HFS-induced LTP at Schaffer collateral-CA1 synapses, mean fEPSP % of baseline, NgR1 null slices with FGF2 (10 µg/ml) (% of baseline) [1]: 165
HFS-induced LTP at Schaffer collateral-CA1 synapses, mean fEPSP % of baseline, wild-type slices with FGF2 (10 µg/ml) (% of baseline) [1]: 139
percentage of cells with processes longer than two cell bodies in diameter, PC12^NgR1 line NgR1-1, 25 ng/ml FGF2 [2]: 5.6%
percentage of cells with processes longer than two cell bodies in diameter, PC12^NgR1 line NgR1-2, 25 ng/ml FGF2 [2]: 7.2%
percentage of cells with processes longer than two cell bodies in diameter, control PC12 cells (very low endogenous NgR1), 25 ng/ml FGF2 [2]: 19.8%
